# Test results: paper PMC3064781
# Legend:
# scNep1 (Emg1) [1] = target: T1, scNep1 (Emg1) (Saccharomyces cerevisiae, UniProt Q06287 1-252); assay: 1:1 molar mix
# scNep1 (Emg1) [2] = target: T1, scNep1 (Emg1); assay: X-ray crystallography
binder,measurement,setting,value
GGGCUUCAACGCCC (structured_RNA) [14-base Nep1 RNA],binding result,scNep1 (Emg1) [1],binds
same,binding result,scNep1 (Emg1) [2],binds
